Values of other authors in article PMC5669632.

Tests used:
His25 = His25 (UniProt position 25, HGSALHWRAAG); experiment: electrophysiology; details: not stated for the quoted data (the present recordings are said to follow the same earlier protocols)
Glu118 = Glu118 (UniProt position 118, WFVGREQERRG); experiment: electrophysiology; details: not stated for the quoted data (the present recordings are said to follow the same earlier protocols)
[1] = closed channel state (model parameter pKa closed)
[2] = open channel state (model parameter pKa open)

Substance	pKa (His25; [1])	pKa (His25; [2])	pKa (Glu118; [1])	pKa (Glu118; [2])
KcsA potassium channel, E71A (non-inactivating control channel) (Streptomyces lividans; E71A)	4.8 (N/A)	7.6	–	–
KcsA potassium channel, H25R/E71A (Streptomyces lividans; H25R;E71A)	–	–	5.0 (0.1)	6.2 (0.1)
